Measured values published in article PMC11154664, “Characterization of Complex Proteoform Mixtures by Online Nanoflow Ion-Exchange Chromatography-Native Mass Spectrometry” (Analytical Chemistry, 2024).

Molecular target: the molecule itself
Assay: native MS; online nanoflow strong cation exchange chromatography coupled to nESI native MS (nanoSCX-nMS); salt-mediated pH gradient from 50 mM ammonium acetate pH 5.0 to 250 mM ammonium acetate pH 8.5

B1: alcohol dehydrogenase (enzyme, UniProt P00330 1-348, looked up)
chain: MSIPETQKGVIFYESHGKLEYKDIPVPKPKANELLINVKYSGVCHTDLHAWHGDWPLPVKLPLVGGHEGAGVVVGMGENVKGWKIGDYAGIKWLNGSCMACEYCELGNESNCPHADLSGYTHDGSFQQYATADAVQAAHIPQGTDLAQVAPILCAGITVYKALKSANLMAGHWVAISGAAGGLGSLAVQYAKAMGYRVLGIDGGEGKEELFRSIGGEVFIDFTKEKDIVGAVLKATDGGAHGVINVSVSEAAIEASTRYVRANGTTVLVGMPAGAKCCSDVFNQVVKSISIVGSYVGNRADTREALDFFARGLVKSPIKVVGLSTLPEIYEKMEKGQIVGRYVVDTSK
notes: alcohol dehydrogenase (ADH), model oligomeric protein called a tetramer; also called ADH
  stoichiometry N: 4
